Data set [1] deals with the molecule itself. As to the kind of experiment: AUC; sedimentation velocity, absorbance at 280 nm, NanR alone at 3.3, 10 and 30 uM in 20 mM Tris-HCl pH 8.0, 150 mM NaCl, 20 °C, 50,000 rpm.
Data set [2] deals with the molecule itself. As to the kind of experiment: AUC; multiwavelength sedimentation velocity (220-300 nm) of protein titrated against (GGTATA)3-repeat DNA, 50 mM sodium phosphate pH 7.4, 150 mM NaCl, 20 °C; oligomer told from the molar ratio of protein to DNA in co-migrating peaks.

A word on the stoichiometry N: it is the number of molecules, sites or subunits per partner or assembly.

B1: Escherichia coli Nan repressor (NanR) (natural protein, E. coli K12, UniProt P0A8W0 1-263, looked up)
chain: MGLMNAFDSQTEDSSPAIGRNLRSRPLARKKLSEMVEEELEQMIRRREFGEGEQLPSERELMAFFNVGRPSVREALAALKRKGLVQINNGERARVSRPSADTIIGELSGMAKDFLSHPGGIAHFEQLRLFFESSLVRYAAEHATDEQIDLLAKALEINSQSLDNNAAFIRSDVDFHRVLAEIPGNPIFMAIHVALLDWLIAARPTVTDQALHEHNNVSYQQHIAIVDAIRRHDPDEADRALQSHLNSVSATWHAFGQTTNKKK
notes: NanR, GntR-type transcriptional repressor of E. coli K12; the synthesised nanR gene in pET28a; the dimer mass used (59 kDa) fits an untagged chain; Expressed with 100 uM ZnCl2; carries Zn2+; For the crystals the protein was treated in situ with chymotrypsin, and the cut limits are not known; also called wild-type NanR; E. coli NanR
For B1, the “stoichiometry N” value in data set [1] was 2.

B2: truncated NanR construct NanR^33–263 (domain or fragment, E. coli K12, UniProt P0A8W0 33-263, looked up)
chain: SEMVEEELEQMIRRREFGEGEQLPSERELMAFFNVGRPSVREALAALKRKGLVQINNGERARVSRPSADTIIGELSGMAKDFLSHPGGIAHFEQLRLFFESSLVRYAAEHATDEQIDLLAKALEINSQSLDNNAAFIRSDVDFHRVLAEIPGNPIFMAIHVALLDWLIAARPTVTDQALHEHNNVSYQQHIAIVDAIRRHDPDEADRALQSHLNSVSATWHAFGQTTNKKK
notes: amplified from nanR and cloned into pET28a; No tag is named
Turning to B2, the binding result in data set [2] is recorded as “binds”.

Values taken from PMC8012715 (Nature Communications, 2021).
